Here are results for one substance from patent publication US20240076390A1.

Experiment [1] deals with Recombinant Human Axl Protein Axl-tag 5 (human) (UniProt P30530). Description: competition ELISA on immobilized Axl-tag 5; unlabeled antibody 50 ug/mL; competitor Biot-v77-2a37.1 1 ug/mL. For orientation: ELISA stands for enzyme-linked immunosorbent assay.
Experiment [2] has the same target. Description: competition ELISA on immobilized Axl-tag 5; unlabeled antibody 50 ug/mL; competitor Biot-M77-297b81.1.1 1 ug/mL.
The target is the same in experiment [3]. In words: competition ELISA on immobilized Axl-tag 5; unlabeled antibody 50 ug/mL; competitor Biot-v77-2a37.1 1 ug/mL (signal is of the biotinylated antibody).
Experiment [4] has the same target. In words: competition ELISA on immobilized Axl-tag 5; unlabeled antibody 50 ug/mL; competitor Biot-M77-297b81.1.1 1 ug/mL (signal is of the biotinylated antibody).

Chain of UniProt P30530 (P30530 26-451): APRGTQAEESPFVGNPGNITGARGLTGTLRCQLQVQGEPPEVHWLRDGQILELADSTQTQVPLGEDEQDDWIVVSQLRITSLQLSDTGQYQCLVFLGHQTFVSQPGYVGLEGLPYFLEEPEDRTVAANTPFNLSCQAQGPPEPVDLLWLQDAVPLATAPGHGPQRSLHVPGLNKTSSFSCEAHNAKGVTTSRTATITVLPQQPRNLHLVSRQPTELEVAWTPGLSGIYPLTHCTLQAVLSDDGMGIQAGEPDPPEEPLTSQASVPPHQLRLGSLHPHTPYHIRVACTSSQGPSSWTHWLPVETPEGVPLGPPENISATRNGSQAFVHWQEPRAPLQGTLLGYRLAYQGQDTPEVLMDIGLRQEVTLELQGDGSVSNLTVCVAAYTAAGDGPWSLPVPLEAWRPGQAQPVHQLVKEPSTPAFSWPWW

Consider “AXL(C89E7) rabbit anti-human Axl monoclonal antibody (Cell Signaling)”, for which the % competition in experiment [1] was determined as 3.3%; in experiment [2], 1.5%. Besides, the OD (650 nm) in experiment [3] is 1.81 OD (650 nm); in experiment [4], 2.13 OD (650 nm).
